Measured values: patent US20170174789A1 (Regeneron, published 2017)

How the values were obtained:
[1] = molecular target: hTie2 on 293-Tie2/SRE-Luc cells (human, UniProt Q02763 23-1124); experiment: cell-based or functional assay
hTie2-His = molecular target: T1, hTie2-His (human, UniProt Q02763 23-745); experiment: blocking ELISA: antibody premixed with 0.8 nM biotin-hTie2-His, binding to plate-coated Bow-Ang2
T1 construct: also called ecto-Tie2 fused to 6xHis; biotin-Tie2-His
Protocol: Tie2 is known to interact with angiopoietins (Ang1, Ang2, Ang3 and Ang4). An initial set of experiments was therefore conducted to evaluate the ability of anti-Tie2 antibodies to block Tie2 binding to Ang2. In this first set of experiments, a quantitative blocking immunoassay was utilized. Briefly, solutions of 0.8 nM biotinylated ecto-Tie2 fused to 6×His (SEQ ID NO:2) were premixed with anti-Tie2 antibody ranging from ˜50 nM to 0 nM in serial dilutions. After a 1-hour incubation at room temperature, the amount of Tie2-His bound to plate coated Bow-Ang2 was measured by sandwich ELISA. Bow-Ang2 (SEQ ID NO:13), an Ang2 construct that comprises the Fc domain of hIgG1 flanked by one FD domain of Ang2 at both termini, was coated at 2 μg/ml on a 96 well microtiter plate and blocked with BSA. Plate-bound biotin-Tie2-His was detected using HRP conjugated streptavidin, and developed using BD OptEIA™ (BD Biosciences Pharmingen, San Diego, Calif.). Signals of OD₄₅₀ nm were recorded and data was analyzed using GraphPad Prism to calculate IC₅₀ values. IC₅₀s were defined as the amount of antibody required to reduce 50% of biotin-Tie2-His detectable to plate bound Bow-Ang2 ligand. In Table 9, an antibody is designated an “enhancer” if the addition of the antibody increases the amount of Tie2-His bound to the Bow-Ang2-coated surface relative to the no antibody control.

EC50, Tie2 dependent luciferase activity, 293-Tie2/SRE-Luc cells with 1 nM BowAng1 [1] | EC50, Tie2 dependent luciferase activity, 293-Tie2/SRE-Luc cells with 1 nM BowAng2 [1] | IC50 (hTie2-His) | Binder
10.3 nM | 13 nM | 0.189 nM | H1H2339B (antibody, V domains shown, Tested as H1H2339B (human IgG format, H1H prefix)) VH: EVQLVESGGGLVQPGGSLRLSCAASGFTFSSYAMNWVRQAPGKGLEWVSSISGSGGNTYYADSVKGRFTISRDNSKNTLYLQLNSLRAEDTAVYYCAKDHSLSWYRNVFDIWGQGTMVTVSS VL: not shown
1.41 nM | 2.1 nM | 1.03 nM | H1H2340B (antibody, V domains shown, Tested as H1H2340B (human IgG format, H1H prefix); also called HIH2340B) VH: EVQLVESGGGLVQPGGSLRLSCAASGFTFSRYWMSWVRQAPGMGLEWVANIKQDGSEKNYVDSVKGRFTVSRDNAKNSLYLQMNSLRAEDTAVYYCASAIFGVVITSYWGQGTLVTVSS VL: not shown
